# B1: Klp5_(436)GST (domain or fragment)
# chain: MSRQSSITVTVRVRPFSTAESANLIASSDRLSFGTSSSLRNPGSGRQIRRVVKVLDGRVLVFDPPDETTATLSATNRRLSTSQQSLARLSRKSNNSAGFGRDLRYAFDRVFDETATQQQVYERTARPLLDNILDGFNATIFAYGATGCGKTHTISGTMQDPGLIYLTLKELFERMDHLRDEKIFDLRLSYLEIYNETIRDLLVSPTPNQAKPLNLREDADRRITVPGLTSLSPESLEEIIDIIMKGNANRTMSPTEANAASSRSHAVLQVTLIQKPRTAGINEDHTLATLSIIDLAGSERATATKLRGSRLFEGANINKSLLALGNCINALCDPHRRAHVPYRDSKLTRLLKFSLGGNCRTVMIVCVSPSSVHYEETHNTLKYANRAKNIKTEVLRNMISVDRHVSQYVKAIVELREQISELENRLAQIDLSSQSN
# B2: Klp5_(436)GST, O14343 1-436 (domain or fragment)
# chain: B1 chain
# B3: Klp5_(436) (domain or fragment)
# chain: B1 chain
# B4: Klp6_(440)His, O59751 1-440 (domain or fragment)
# chain: MKEGSSISVAVRVRPFTEREKGLLAETPKSKEFLGDGSLAVSNTSSNTFCTNGIRKIVRVLDDNVLIFDPPEENPLAKVQKSLLPAGKRFRDVRYAFDRLFGEEASQEDVYKGTTEPLLDSVLQGYNATVFAYGATGCGKTHTISGRPDDPGIIFLTMRALLDRVEGLKRTMNVDISVSYLEIYNEKIRDLLVQDPLSMEKPKSLNICEDAEQNVSVPGLSYFTPTNLEEVMEIIIRGNSNRTMSPTEANAVSSRSHAVLQIYITQTPKSGEKQEESESQNSHKVRSVFSFIDLAGSERASATKNRGKRLVEGANINRSLLALGNCINSLCEPRRRQHVPYRDSKLTRLLKFSLGGNCRTCMIVCISPSSEHYDETHNTLKYGNRAKNIKTKVSRNVVSVDRHVSEYVRTIYELRQKVSILQKRIAEESKQLALNKEVRK
# B5: Klp6_(440)His (domain or fragment, S. pombe, UniProt O59751 1-440, looked up)
# chain: B4 chain
# notes: Klp6 of S. pombe, amino acids 1-440: motor domain and complete putative coiled-coil domain; Homodimer by Superose 12 gel filtration; also called Klp6(aa1-440)/GlyGly/6xHis tag; Klp440His; source: E. coli Rosetta 2 (DE3), purified (HisTrap); not shown: His6 (after a GlyGly linker), C-terminal, kept
# B6: Klp6FLHis (natural protein, S. pombe, UniProt O59751 1-784, looked up)
# chain: MKEGSSISVAVRVRPFTEREKGLLAETPKSKEFLGDGSLAVSNTSSNTFCTNGIRKIVRVLDDNVLIFDPPEENPLAKVQKSLLPAGKRFRDVRYAFDRLFGEEASQEDVYKGTTEPLLDSVLQGYNATVFAYGATGCGKTHTISGRPDDPGIIFLTMRALLDRVEGLKRTMNVDISVSYLEIYNEKIRDLLVQDPLSMEKPKSLNICEDAEQNVSVPGLSYFTPTNLEEVMEIIIRGNSNRTMSPTEANAVSSRSHAVLQIYITQTPKSGEKQEESESQNSHKVRSVFSFIDLAGSERASATKNRGKRLVEGANINRSLLALGNCINSLCEPRRRQHVPYRDSKLTRLLKFSLGGNCRTCMIVCISPSSEHYDETHNTLKYGNRAKNIKTKVSRNVVSVDRHVSEYVRTIYELRQKVSILQKRIAEESKQLALNKEVRKISSREIKMLDARSMLKNSFDGSRDLQKSLIEHVRTLRRIEDEITLTKMWISIAKESDAMSGHNIKSVETRLAKLYDQRSLITAKVNPEEICKTFQNSISHIVSSFKGEGADMYADMLQDDVDLLKSIIENQILDAKHESETFSSTSRKLIQNLFLLFPLLPGNAIDVNESLARAFDQLVGIVPSEPTIQVPNLIEKGKAPLLSMFEIPRSPSRFKARSPSKAARVLKKPLKKRVRFSEVPTTSSVPPVEIKNKDSKPKVEKSLDKHNMNNDRSFLVPSRDARNSLTSLSLHSNVAKNKSSHSSKWPTHTLSPIITTALKQPVRRISLVSQPLQKTGGTENTPNA
# notes: Klp6, kinesin-8 of S. pombe, amino acids 1-784; also called full-length Klp6; Klp6(aa1-784)/GlyGly/6xHis tag; not shown: His6 (after a GlyGly linker), C-terminal, kept
# Key:
# [1] = target: Klp6_(440)His (S. pombe) (UniProt O59751)
# [2] = target: Taxol stabilised pig brain microtubules (pig) (UniProt P02550)
# [3] = target: S. pombe GMPCPP microtubules (S. pombe), P04688
# [4] = target: S. pombe tubulin heterodimer (S. pombe), P04688
# Chain of S. pombe tubulin heterodimer (S. pombe), P04688 (P04688 whole entry, chain 1 of 2): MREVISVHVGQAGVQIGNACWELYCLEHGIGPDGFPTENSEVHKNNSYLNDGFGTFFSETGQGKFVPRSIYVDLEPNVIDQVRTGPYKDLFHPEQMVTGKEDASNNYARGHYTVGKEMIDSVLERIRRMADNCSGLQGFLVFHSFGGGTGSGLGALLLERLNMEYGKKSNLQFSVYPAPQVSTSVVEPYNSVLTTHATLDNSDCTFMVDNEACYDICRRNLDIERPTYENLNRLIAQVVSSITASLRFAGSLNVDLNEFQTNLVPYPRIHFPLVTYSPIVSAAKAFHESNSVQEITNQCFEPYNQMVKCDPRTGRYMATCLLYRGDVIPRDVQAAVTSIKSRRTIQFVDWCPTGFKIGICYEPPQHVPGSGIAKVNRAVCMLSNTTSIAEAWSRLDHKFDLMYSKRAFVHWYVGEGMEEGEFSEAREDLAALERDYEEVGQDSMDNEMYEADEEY
# Chain of S. pombe tubulin heterodimer (S. pombe), P04688 (P05219 whole entry, chain 2 of 2, further chain): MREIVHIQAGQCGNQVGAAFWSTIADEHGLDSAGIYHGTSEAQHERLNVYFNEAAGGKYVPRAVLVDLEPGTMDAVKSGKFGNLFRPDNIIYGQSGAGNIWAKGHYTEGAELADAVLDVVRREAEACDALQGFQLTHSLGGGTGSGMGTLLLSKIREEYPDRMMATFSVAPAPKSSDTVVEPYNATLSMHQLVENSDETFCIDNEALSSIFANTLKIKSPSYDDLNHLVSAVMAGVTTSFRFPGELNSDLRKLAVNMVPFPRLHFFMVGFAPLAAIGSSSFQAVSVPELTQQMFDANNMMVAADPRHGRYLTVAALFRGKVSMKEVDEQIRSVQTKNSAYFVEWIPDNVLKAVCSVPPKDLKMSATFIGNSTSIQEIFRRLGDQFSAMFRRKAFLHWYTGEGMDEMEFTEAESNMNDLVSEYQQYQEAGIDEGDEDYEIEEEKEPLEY
# [5] = target: pig brain tubulin heterodimer (pig) (UniProt P02550)
# Chain of pig brain tubulin heterodimer (pig) (P02550 whole entry, chain 1 of 2): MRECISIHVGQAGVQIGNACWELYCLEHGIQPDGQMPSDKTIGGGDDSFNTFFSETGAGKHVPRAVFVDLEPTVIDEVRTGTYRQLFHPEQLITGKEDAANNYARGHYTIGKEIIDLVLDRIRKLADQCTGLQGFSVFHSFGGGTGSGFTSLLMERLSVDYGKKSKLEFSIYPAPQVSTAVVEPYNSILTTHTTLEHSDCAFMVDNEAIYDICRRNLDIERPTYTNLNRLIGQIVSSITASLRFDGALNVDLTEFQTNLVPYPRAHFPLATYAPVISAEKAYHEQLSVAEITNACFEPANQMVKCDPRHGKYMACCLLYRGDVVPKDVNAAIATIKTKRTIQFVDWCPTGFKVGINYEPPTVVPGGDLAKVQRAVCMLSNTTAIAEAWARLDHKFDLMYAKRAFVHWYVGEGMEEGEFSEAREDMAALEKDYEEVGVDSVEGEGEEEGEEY
# Chain of pig brain tubulin heterodimer (pig) (Q767L7 whole entry, chain 2 of 2, further chain): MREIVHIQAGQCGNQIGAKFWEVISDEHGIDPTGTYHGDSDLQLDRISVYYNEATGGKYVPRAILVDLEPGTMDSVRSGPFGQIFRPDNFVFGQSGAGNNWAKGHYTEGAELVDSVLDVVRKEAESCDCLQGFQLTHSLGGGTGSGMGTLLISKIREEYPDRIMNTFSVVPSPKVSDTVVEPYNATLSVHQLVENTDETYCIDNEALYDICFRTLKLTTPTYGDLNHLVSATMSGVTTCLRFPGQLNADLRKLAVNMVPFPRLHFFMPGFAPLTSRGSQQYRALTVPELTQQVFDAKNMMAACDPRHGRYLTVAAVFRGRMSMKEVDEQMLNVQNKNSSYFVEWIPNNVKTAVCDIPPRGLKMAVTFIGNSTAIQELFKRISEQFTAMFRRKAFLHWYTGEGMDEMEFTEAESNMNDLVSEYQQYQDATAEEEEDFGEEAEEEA
# [6] = target: S. pombe tubulin heterodimer (S. pombe) (UniProt P04688)
# Chain of S. pombe tubulin heterodimer (S. pombe) (P04688 whole entry, chain 1 of 2): as the sequence (P04688 whole entry, chain 1 of 2) above
# Chain of S. pombe tubulin heterodimer (S. pombe) (P05219 whole entry, chain 2 of 2, further chain): as the sequence (P05219 whole entry, chain 2 of 2, further chain) above
# [7] = target: S. pombe GMPCPP microtubules (S. pombe) (UniProt P04688)
# [8] = target: S. pombe single isoform (α1β) tubulin heterodimer (S. pombe) (UniProt P04688); assay: SEC; 15 µM tubulin with 10.7 µM dimeric Klp6_(440)His incubated at 4°C for 30 min in 80 mM PIPES, 2.5 mM MgCl2, 1 mM EDTA, 1.5 mM GMPCPP, 1 mM DTT pH 6.9; Superose-12 at 4°C; fractions on SDS-PAGE, fluorescent stain quantified
# [9] = target: the molecule itself; assay: SEC; Superose-12 HR 10/300 GL at 4°C, 0.5 ml/min, 100 mM PIPES, 200 mM NaCl, 1 mM MgCl2, 2 mM EDTA, pH 6.9; elution compared with Ovalbumin (43 kDa) and Bovine Serum Albumin (67 kDa)
# [10] = target: T1, Klp5FLGST (S. pombe, UniProt O14343 1-883); assay: pull-down; co-expressed in E. coli; sequential affinity purification from the bacterial lysate by the His tag (Ni column) and then the GST tag (eluted with 10 mM glutathione); SDS-PAGE, densitometry; conditions: partners not purified
# T1 construct: Klp5, kinesin-8 of S. pombe, amino acids 1-883; it was only obtained co-expressed with Klp6FLHis; The cloning of this plasmid is not described in the methods; also called full-length Klp5; not shown: GST, C-terminal, kept
# T1 sequence (looked up): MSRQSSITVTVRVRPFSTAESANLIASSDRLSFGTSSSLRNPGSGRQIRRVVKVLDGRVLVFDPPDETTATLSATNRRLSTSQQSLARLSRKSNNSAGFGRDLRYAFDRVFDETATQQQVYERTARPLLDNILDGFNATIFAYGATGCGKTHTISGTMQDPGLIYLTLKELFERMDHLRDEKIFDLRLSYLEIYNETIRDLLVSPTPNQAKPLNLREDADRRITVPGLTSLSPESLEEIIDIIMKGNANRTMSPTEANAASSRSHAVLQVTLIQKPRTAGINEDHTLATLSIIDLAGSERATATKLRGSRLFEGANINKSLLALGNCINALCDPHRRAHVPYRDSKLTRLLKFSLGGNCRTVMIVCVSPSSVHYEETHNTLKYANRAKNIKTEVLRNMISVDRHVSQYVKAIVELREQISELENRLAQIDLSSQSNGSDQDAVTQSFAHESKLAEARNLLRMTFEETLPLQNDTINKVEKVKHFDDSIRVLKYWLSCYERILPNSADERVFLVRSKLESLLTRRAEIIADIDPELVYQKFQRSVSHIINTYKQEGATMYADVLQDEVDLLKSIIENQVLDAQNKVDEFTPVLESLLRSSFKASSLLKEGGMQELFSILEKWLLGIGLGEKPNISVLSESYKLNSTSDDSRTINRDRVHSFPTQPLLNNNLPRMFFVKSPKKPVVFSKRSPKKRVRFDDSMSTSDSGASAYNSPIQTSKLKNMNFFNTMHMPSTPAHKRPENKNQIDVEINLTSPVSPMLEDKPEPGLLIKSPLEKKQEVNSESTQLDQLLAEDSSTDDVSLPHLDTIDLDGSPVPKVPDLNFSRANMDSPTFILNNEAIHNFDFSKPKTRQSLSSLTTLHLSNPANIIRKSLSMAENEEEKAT
molecule,measurement,setting,value
pig brain tubulin heterodimer (from UniProt P02550 1-451; Q767L7 1-444) (complex),Ki of tubulin heterodimers for inhibition of the Klp6 (440)His ATPase stimulated by 73 nM Taxol stabilised pig brain microtubules (blocked pair: m3 with m12),[1],175 nM
S. pombe tubulin heterodimer (from UniProt P04688 1-455; P05219 1-448) (complex),Ki of tubulin heterodimers for inhibition of the Klp6 (440)His ATPase stimulated by 73 nM Taxol stabilised pig brain microtubules (blocked pair: m3 with m12),[1],121 nM
B1,"Km of the microtubule stimulated ATPase (Taxol stabilised pig brain microtubules), linked assay at 25°C",[2],0.0278 µM
B2,"Km of the microtubule stimulated ATPase (S. pombe GMPCPP microtubules), linked assay at 25°C",[3],0.045 µM
same,"Km of the tubulin heterodimer stimulated ATPase (S. pombe tubulin), linked assay at 25°C",[4],0.108 µM
B3,"Km of the tubulin heterodimer stimulated ATPase (pig brain tubulin), linked assay at 25°C",[5],0.427 µM
same,"Km of the tubulin heterodimer stimulated ATPase (S. pombe tubulin), linked assay at 25°C",[6],0.336 µM
same,"Km of the microtubule stimulated ATPase (Taxol stabilised pig brain microtubules), linked assay at 25°C",[2],0.045 µM
same,"Km of the microtubule stimulated ATPase (S. pombe GMPCPP microtubules), linked assay at 25°C",[7],0.05 µM
B4,"Km of the microtubule stimulated ATPase (S. pombe GMPCPP microtubules), linked assay at 25°C",[3],0.056 µM
same,"Km of the tubulin heterodimer stimulated ATPase (S. pombe tubulin), linked assay at 25°C",[4],0.373 µM
B5,stoichiometry N (tubulin heterodimer per kinesin head),[8],1
same,stoichiometry N,[9],2
same,"Km of the microtubule stimulated ATPase (Taxol stabilised pig brain microtubules), linked assay at 25°C",[2],0.085 µM
B6,molar ratio of Klp6FLHis : Klp5FLGST in the sequentially purified fraction,[10],3.2 Klp6FLHis per Klp5FLGST
